Results on one molecule are retold here after PMC3832974.

The target in this data set is human alpha-thrombin (Homo sapiens, UniProt P00734;P00734 328-363;364-622). Put plainly: dot blot immunoenzymatic assay on cloth; 13.5 nM thrombin; UV cross-linked; PBS (0.01 M phosphate pH 7.4, 0.85% NaCl), 13.5 nM thrombin, 20 min, room temperature; aptamers (10 uM) spotted in 0.1 M Tris-HCl pH 8.0, 0.01 M MgCl2, 0.15 M N.

B1: Apt 4 (ssDNA)
DNA: AGATGCCTGTCGAGCATGCTCTTTGGAGACAGTCCGTGGTAGGGCAGGTTGGGGTGACTTCGTGGAAGAAGCGAGACGGTGTAGCTAAACTGCTTTGTCGACGGG
Regarding B1, the binding result is “binds”.
